The pKd is the Kd on a negative log10 scale, so that one unit is a factor of ten.

In patent US20160331662A1, “Compositions that Inhibit and Prevent the Formation of Dental Caries and Methods of Using the Same” (priority 2014, published 2016) one finds Ka and Kd data, which are given here for two substances.

pKd: −log10 of the molar value.

One assay addresses iSRCR123 (human) (UniProt Q9UGM3). The experiment in a line: SPR, analyte over ligand immobilized on CM5 chip, 1:1 Langmuir model. Background: Surface plasmon resonance follows binding to a sensor surface in real time, without labels.
Assay [1] deals with iSRCR1 (Deglycosylated) (human) (UniProt Q9UGM3). The experiment in a line: SPR, analyte over ligand deglycosylated on the CM5 chip, 1:1 Langmuir model.
Assay [2] deals with iSRCR123 (Deglycosylated) (human) (UniProt Q9UGM3). The description is as above.
Assay [3] concerns the target salivary agglutinin (SAG) (human) (UniProt Q9UGM3). Kind of assay: SPR, analyte over SAG immobilized on CM5 chip, 1:1 Langmuir model.

Sequence of iSRCR123 (Deglycosylated) (human) (Q9UGM3 102-463 limits assumed): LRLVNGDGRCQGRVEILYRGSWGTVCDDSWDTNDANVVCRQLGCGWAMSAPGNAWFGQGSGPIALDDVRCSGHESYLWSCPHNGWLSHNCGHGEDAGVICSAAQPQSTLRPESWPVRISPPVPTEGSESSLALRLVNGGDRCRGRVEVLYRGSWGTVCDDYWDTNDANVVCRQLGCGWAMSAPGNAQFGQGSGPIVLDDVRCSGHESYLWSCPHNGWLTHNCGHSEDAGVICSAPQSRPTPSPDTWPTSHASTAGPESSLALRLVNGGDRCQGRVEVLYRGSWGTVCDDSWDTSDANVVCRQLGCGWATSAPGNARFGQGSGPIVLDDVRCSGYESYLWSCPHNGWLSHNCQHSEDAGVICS
Sequence of salivary agglutinin (SAG) (human) (Q9UGM3 whole entry): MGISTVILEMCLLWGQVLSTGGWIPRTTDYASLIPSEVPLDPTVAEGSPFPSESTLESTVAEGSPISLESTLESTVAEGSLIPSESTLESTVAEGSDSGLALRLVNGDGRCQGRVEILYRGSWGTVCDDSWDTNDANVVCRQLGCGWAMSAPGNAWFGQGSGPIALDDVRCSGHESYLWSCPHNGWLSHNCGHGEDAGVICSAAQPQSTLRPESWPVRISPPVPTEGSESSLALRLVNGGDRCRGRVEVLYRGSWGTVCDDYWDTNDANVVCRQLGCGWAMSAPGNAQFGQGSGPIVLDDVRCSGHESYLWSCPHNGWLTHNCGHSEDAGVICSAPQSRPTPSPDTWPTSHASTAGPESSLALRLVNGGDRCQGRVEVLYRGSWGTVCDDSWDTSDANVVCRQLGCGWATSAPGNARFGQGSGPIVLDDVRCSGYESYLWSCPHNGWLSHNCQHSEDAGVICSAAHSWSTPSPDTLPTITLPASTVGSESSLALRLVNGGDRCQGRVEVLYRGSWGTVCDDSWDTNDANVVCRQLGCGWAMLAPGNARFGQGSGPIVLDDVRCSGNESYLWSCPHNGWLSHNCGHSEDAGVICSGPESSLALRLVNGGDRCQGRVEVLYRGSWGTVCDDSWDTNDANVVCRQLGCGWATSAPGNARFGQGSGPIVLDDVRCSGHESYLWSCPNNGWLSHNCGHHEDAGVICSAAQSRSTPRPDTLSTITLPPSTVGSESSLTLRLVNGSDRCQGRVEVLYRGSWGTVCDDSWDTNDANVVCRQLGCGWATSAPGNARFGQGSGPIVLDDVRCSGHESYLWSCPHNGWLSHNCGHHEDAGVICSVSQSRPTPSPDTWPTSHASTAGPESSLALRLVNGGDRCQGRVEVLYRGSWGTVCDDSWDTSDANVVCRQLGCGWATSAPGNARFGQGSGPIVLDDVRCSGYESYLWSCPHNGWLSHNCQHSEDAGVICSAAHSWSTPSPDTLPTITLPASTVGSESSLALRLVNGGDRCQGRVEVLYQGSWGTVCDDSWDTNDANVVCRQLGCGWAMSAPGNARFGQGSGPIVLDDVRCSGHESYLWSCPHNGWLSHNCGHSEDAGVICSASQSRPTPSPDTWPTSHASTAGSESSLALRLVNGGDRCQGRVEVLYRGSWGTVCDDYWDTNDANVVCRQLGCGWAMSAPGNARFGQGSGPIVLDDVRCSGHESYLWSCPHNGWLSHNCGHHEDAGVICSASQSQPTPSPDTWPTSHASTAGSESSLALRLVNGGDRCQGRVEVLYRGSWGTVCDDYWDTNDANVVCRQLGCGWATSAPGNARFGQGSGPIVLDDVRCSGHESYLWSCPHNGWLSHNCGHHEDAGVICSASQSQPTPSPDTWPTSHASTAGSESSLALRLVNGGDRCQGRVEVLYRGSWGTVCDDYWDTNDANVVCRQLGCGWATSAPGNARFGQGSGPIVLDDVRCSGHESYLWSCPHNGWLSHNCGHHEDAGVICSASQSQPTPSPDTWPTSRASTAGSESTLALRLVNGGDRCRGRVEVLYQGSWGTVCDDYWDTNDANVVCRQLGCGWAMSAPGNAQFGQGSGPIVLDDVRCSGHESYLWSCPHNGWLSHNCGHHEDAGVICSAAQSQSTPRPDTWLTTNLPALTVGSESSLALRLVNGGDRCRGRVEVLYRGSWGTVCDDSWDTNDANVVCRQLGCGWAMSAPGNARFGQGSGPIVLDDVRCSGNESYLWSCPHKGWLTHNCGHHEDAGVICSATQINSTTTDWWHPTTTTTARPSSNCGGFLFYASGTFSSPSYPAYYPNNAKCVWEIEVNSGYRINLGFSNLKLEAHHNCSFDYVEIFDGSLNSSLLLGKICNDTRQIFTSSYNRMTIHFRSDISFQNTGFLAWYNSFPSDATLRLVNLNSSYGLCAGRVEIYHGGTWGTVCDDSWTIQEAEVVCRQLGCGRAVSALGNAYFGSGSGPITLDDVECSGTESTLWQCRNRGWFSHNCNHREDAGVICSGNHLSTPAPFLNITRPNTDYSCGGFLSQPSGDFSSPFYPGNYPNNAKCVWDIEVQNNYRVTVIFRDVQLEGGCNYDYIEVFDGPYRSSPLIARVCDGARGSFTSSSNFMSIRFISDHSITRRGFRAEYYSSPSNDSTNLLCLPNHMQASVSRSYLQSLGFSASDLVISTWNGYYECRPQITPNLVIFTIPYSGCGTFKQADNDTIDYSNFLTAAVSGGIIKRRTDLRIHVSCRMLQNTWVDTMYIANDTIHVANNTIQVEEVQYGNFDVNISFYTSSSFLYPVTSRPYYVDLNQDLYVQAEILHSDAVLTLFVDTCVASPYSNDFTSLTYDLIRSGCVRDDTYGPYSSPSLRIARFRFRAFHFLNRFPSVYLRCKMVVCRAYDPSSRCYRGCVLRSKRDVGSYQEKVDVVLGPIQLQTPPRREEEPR
Sequence of iSRCR1 (Deglycosylated) (human) (Q9UGM3 102-202): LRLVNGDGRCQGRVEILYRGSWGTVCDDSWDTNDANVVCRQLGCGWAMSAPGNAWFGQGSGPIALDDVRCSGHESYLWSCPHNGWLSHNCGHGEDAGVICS
Sequence of iSRCR123 (human) (Q9UGM3 102-463 limits assumed): as the sequence (Q9UGM3 102-463 limits assumed) above

With “A3VP1^SspB (S. gordonii DL1 SspB, residues 386-805) (from UniProt P16952 386-805)”, the Ka with iSRCR123 (human) came to 5.53e+07 M⁻¹; in assay [2], 1.38e+06 M⁻¹; in assay [3], 3.19e+07 M⁻¹. Moreover, the pKd in the assay with iSRCR123 (human) was 7.74; in assay [1], 6.47; in assay [2], 6.14; in assay [3] it was 7.50.

Turning to “C123^SspB (S. gordonii DL1 SspB, residues 913-1406) (from UniProt P16952 913-1406)”, the Ka in assay [1] stood at 921000 M⁻¹; in assay [3], 1.07e+07 M⁻¹. Moreover, the values for the pKd in assay [1], in assay [2] and in assay [3] were 5.96, 5.21 and 7.03, respectively.
